B1: NRP1-82 (VHH)
VHH: EVQLVESGGGLVQPGGSLRLSCAASGRTFNRYPMGWFRQAPGKEREWVSAINSNGNRYYYADSVKGRFTISADNSKNTAYLQMNSLKPEDTAVYYCAIHTSREIWGQGTLVTVSS
B2: NRP1-84 (VHH)
VHH: EVQLVESGGGLVQPGGSLRLSCAASGRTFSNYKMGWFRQAPGKEREFVARIFTDDGDSYYADSVKGRFTISADNSKNTAYLQMNSLKPEDTAVYYCAKWDGLGTLWGQGTLVTVSS
B3: NRP1-105 (VHH)
VHH: EVQLVESGGGLVQPGGSLRLSCAASGTTFRINVMGWFRQAPGKERELVAAMRWSSSSTDYADSVKGRFTISADNSKNTAYLQMNSLKPEDTAVYYCAASIEGVSGRWGQGTLVTVSS
B4: NRP1-121 (antibody, IgG2, V domains shown)
VH: QVQLVQSGAEVKKPGSSVKVSCKASGGTFSNYAISWVRQAPGQGLEWMGGIIPINYAQKFQGRVTITADESTSTAYMELSSLRSEDTAVYYCVRRVVGATPFDYWGQGTLVTVSS
VL: DIQMTQSPSSLSASVGDRVTITCRASQIIRRYLNWYQQKPGKAPKLLIYPASSLQSGVPSRFSGSGSGTDFTLTISSLQPEDFATYYCQQAYSTPMFGQGTKVEIK
B5: NRP1-233 (antibody, IgG2, V domains shown)
VH: EVQLLESGGGLVQPGGSLRLSCAASGFSFSTYAMTWVRQAPEKGLEWVSSIGGSGRSTYYADSVKGRFTISRDNSKNTLYLQMNSLRAEDTAVYYCARLKRGGTNLVRKATRYQFYGMDAWGQGTLVTVSS
VL: DIQMTQSPSSLSASVGDRVTITCRASQSISSYLAWYQQKPGKAPKLLIYAGSGLQSGVPSRFSGSGSGTDFTLTISSLQPEDFATYYCQQSFTSPLTFGGGTKVEIK
B6: NRP1-245 (antibody, IgG2, V domains shown)
VH: EVQLLESGGGLVQPGGSLRLSCAASGLTFSRYAMSWVRQAPGKGLEWVSTISGRGGSTNYADSVKGRFTISRDNSKNTLYLQMNSLRAEDTAVYYCAKDSARFISPPRGIRIRGVVLSGFDSWGQGTLVTVSS
VL: DIQMTQSPSSLSASVGDRVTITCRASQSISTSLNWYQQKPGKAPKLLIYATSSLQSGVPSRFSGSGSGTDFTLTISSLQPEDFATYYCQQAYSTPLTFGGGTKVEIK
B7: NRP1-251 (antibody, IgG2, V domains shown)
VH: EVQLLESGGGLVQPGGSLRLSCAASGSTFSSHAMSWVRQAPGKGLEWVSGISASGGSTHYADSVKGRFTISRDNSKNTLYLQMNSLRAEDTAVYYCARLKRGGTNLVRKATRYQFYGMDAWGQGTLVTVSS
VL: DIQMTQSPSSLSASVGDRVTITCRASQSVSSHLNWYQQKPGKAPKLLIYDASSLQSGVPSRFSGSGSGTDFTLTISSLQPEDFATYYCQQSYKTPVTFGGGTKVEIK
B8: NRP1-253 (antibody, IgG2, V domains shown)
VH: EVQLLESGGGLVQPGGSLRLSCAASGFTFSNHAMSWVRQAPGKGLEWVSTISGSGGSTYYVDSVKGRFTISRDNSKNTLYLQMNSLRAEDTAVYYCARGGPAPLFDYWGQGTLVTVSS
VL: DIQMTQSPSSLSASVGDRVTITCRSSQSISSYLNWYQQKPGKAPKLLIYAASNFQSGVPSRFSGSGSGTDFTLTISSLQPEDFATYYCQQTYSIPLTFGGGTKVEIK
B9: NRP1-263 (antibody, IgG2, V domains shown)
VH: EVQLLESGGGLVQPGGSLRLSCAASGFTFKKYAMSWVRQAPGKGLEWVSTISGSGRSTYYADSVKGRFTISRDNSKNTLYLQMNSLRAEDTAVYYCARDLARGTMPRGVIIPHNWFDPWGQGTLVTVSS
VL: DIQMTQSPSSLSASVGDRVTITCRASQTISNYLNWYQQKPGKAPKLLIYGATSLQSGVPSRFSGSGSGTDFTLTISSLQPEDFATYYCQQSYNTPTTFGGGTKVEIK
B10: NRP1-118 (antibody, IgG2, V domains shown)
VH: EVQLLESGGGLVQPGGSLRLSCAASGFTFNKYPMMWVRQAPGKGLEWVSRISVAGRRTAYADSVKGRFTISRDNSKNTLYLQMNSLRAEDTAVYYCAKWRREGYTGSKFDYWGQGTLVTVSS
VL: DIQMTQSPSSLSASVGDRVTITCSASQDINKYLNWYQQKPGKAPKLLIYGTSNLESGVPSRFSGSGSGTDFTLTISSLQPEDFATYYCHTWDHHHTTGEHNVFGQGTKVEIK
B11: NRP1-125 (antibody, IgG2, V domains shown)
VH: EVQLLESGGGLVQPGGSLRLSCAASGFTFSGYDMQWVRQAPGKGLEWVSSISGYGSTTYYADSVKGRFTISRDNSKNTLYLQMNSLRAEDTAVYYCAKGRRIFDYWGQGTLVTVSS
VL: DIQMTQSPSSLSASVGDRVTITCRASQTIERRLNWYQQKPGKAPKLLIYRKSNRPSGVPSRFSGSGSGTDFTLTISSLQPEDFATYYCQQNNNWPTTFGQGTKVEIK
B12: NRP1-128 (antibody, IgG2, V domains shown)
VH: EVQLLESGGGLVQPGGSLRLSCAASGFTFSRYAMNWVRQAPGKGLEWVSAISGSGGNTYYADSVKGRFTISRDNSKNTLYLQMNSLRAEDTAVYYCARVRRGGATDYWGQGTLVTVSS
VL: DIQMTQSPSSLSASVGDRVTITCRASQDVSSGVAWYQQKPGKAPKLLIYGKNIRPSGVPSRFSGSGSGTDFTLTISSLQPEDFATYYCQQTYSPPLTFGQGTKVEIK
B13: NRP1-11 (VHH)
VHH: EVQLVESGGGLVQPGGSLRLSCAASGRTFTTYPMGWFRQAPGKEREFVAAITWNGASTSYADSVKGRFTISADNSKNTAYLQMNSLKPEDTAVYYCAKGGGYSGYDYDYWGQGTLVTVSS
B14: NRP1-132 (antibody, IgG2, V domains shown)
VH: EVQLLESGGGLVQPGGSLRLSCAASGFTFGDHGMGWVRQAPGKGLEWVSYITPKGDHTYYADSVKGRFTISRDNSKNTLYLQMNSLRAEDTAVYYCASLPKRGPRFDYWGQGTLVTVSS
VL: DIQMTQSPSSLSASVGDRVTITCRASQNIRSYLNWYQQKPGKAPKLLIYRLSVLQSGVPSRFSGSGSGTDFTLTISSLQPEDFATYYCQQGYTLPWTFGQGTKVEIK
B15: NRP1-134 (antibody, IgG2, V domains shown)
VH: EVQLLESGGGLVQPGGSLRLSCAASGFTFSNYGVSWVRQAPGKGLEWVSEISPSGKKKYYADSVKGRFTISRDNSKNTLYLQMNSLRAEDTAVYYCAKTTDIQRLNSAFDYWGQGTLVTVSS
VL: DIQMTQSPSSLSASVGDRVTITCRASQPIAYFLSWYQQKPGKAPKLLIYDASSLHTGVPSRFSGSGSGTDFTLTISSLQPEDFATYYCSSRDKSGSRLVTFGQGTKVEIK
B16: NRP1-204 (antibody, IgG2, V domains shown)
VH: EVQLLESGGGLVQPGGSLRLSCAASGFTFSAFAMSWVRQAPGKGLEWVSGTSGSGGSTYYADSVKGRFTISRDNSKNTLYLQMNSLRAEDTAVYYCARHRAYSYGLDYWGQGTLVTVSS
VL: DIQMTQSPSSLSASVGDRVTITCRARQSISTYLNWYQQKPGKAPKLLIYSASTLESGVPSRFSGSGSGTDFTLTISSLQPEDFATYYCQQSYRTPWTFGGGTKVEIK
B17: NRP1-15 (VHH)
VHH: EVQLVESGGGLVQPGGSLRLSCAASGFTFSNYDMGWFRQAPGKEREFVAAISWSGTLTSYADSVKGRFTISADNSKNTAYLQMNSLKPEDTAVYYCARQRETGHLILYSDYYYGMDVWGQGTLVTVSS
B18: NRP1-210 (antibody, IgG2, V domains shown)
VH: EVQLLESGGGLVQPGGSLRLSCAASGFTFSSYVMAWVRQAPGKGLEWVSTISASGGTTYYADSVKGRFTISRDNSKNTLYLQMNSLRAEDTAVYYCAKVGSGWYFWGQGTLVTVSS
VL: DIQMTQSPSSLSASVGDRVTITCRTSQSISRYLNWYQQKPGKAPKLLIYAASSLQGGVPSRFSGSGSGTDFTLTISSLQPEDFATYYCQQSYTVPITFGGGTKVEIK
B19: NRP1-18 (VHH)
VHH: EVQLVESGGGLVQPGGSLRLSCAASGFRFSSYGMGWFRQAPGKEREFVAFISGNPSRTYYADSVKGRFTISADNSKNTAYLQMNSLKPEDTAVYYCAARPYQKYNWASASYNWGQGTLVTVSS
B20: NRP1-4 (VHH)
VHH: EVQLVESGGGLVQPGGSLRLSCAASGNIFINNAMGWFRQAPGKERELVAAITSSSGRRWYADSVKGRFTISADNSKNTAYLQMNSLKPEDTAVYYCAARRIVNVEGAYRDWGQGTLVTVSS
B21: NRP1-33 (VHH)
VHH: EVQLVESGGGLVQPGGSLRLSCAASGRTFSSGTMGWFRQASGKEREFVARINSDGSTNYADSVKGRFTISADNSKNTAYLQMNSLKPEDTAVYYCAKWSSSWYGYYYYGMDVWGQGTLVTVSS
B22: NRP1-35 (VHH)
VHH: EVQLVESGGGLVQPGGSLRLSCAASGSIFSFNAMGWFRQAPGKERELVASITPGGNINYADSVKGRFTISADNSKNTAYLQMNSLKPEDTAVYYCARDVEGGWYGLSYGMDVWGQGTLVTVSS

What was measured:
[1] = molecular target: neuropilin-1 (NRP1) on HEK293 cells overexpressing NRP1 (UniProt O14786); test: flow cytometry, HEK293-NRP1 vs HEK293
[2] = molecular target: T1, neuropilin-1 (NRP1) on HEK293 cells overexpressing NRP1 (UniProt O14786 22-923, limits assumed); test: flow cytometry, HEK293-NRP1 vs HEK293
T1 construct: whole, on cells

[3] = molecular target: neuropilin-1 (NRP1), analyte in SPR (UniProt O14786 22-644, limits assumed); test: SPR, Carterra LSA, antibody coupled
Experimental: SPR experiments were performed on a Carterra LSA SPR biosensor equipped with a HC30M chip at 25° C. in HBS-TE. Antibodies were diluted to 10 μg/mL and amine-coupled to the sensor chip by EDC/NHS activation, followed by ethanolamine HCl quenching. Increasing concentrations of analyte were flowed over the sensor chip in HBS-TE with 0.5 mg/mL BSA with 5-minute association and 15-minute dissociation. Following each injection cycle the surface was regenerated with 2× 30-second injections of IgG elution buffer (Thermo). Data were analyzed in Carterra's Kinetics Tool software with 1:1 binding model.

Binder	100 nM FACS (MFI Ratio) [1]	100 nM FACS (MFI Ratio) [2]	binding result [3]	further results
B1	2	–	–	–
B2	1.7	–	–	–
B3	1.8	–	–	–
B4	1.5	–	–	–
B5	1.7	–	–	–
B6	2	–	–	–
B7	1.5	–	–	–
B8	1.5	–	–	–
B9	1.9	–	–	–
B10	–	4.5	no binding	–
B11	–	0.6	no binding	–
B12	–	1.2	no binding	–
B13	–	2.3	no binding	–
B14	–	0.8	no binding	–
B15	–	1.9	no binding	–
B16	–	9.2	–	Kd [3]: 408000 nM; koff [3]: 0.0897 s⁻¹; kon [3]: 220 M⁻¹ s⁻¹
B17	–	6.5	no binding	–
B18	–	2.1	no binding	–
B19	–	20.8	–	Kd [3]: 290 nM; koff [3]: 0.00374 s⁻¹; kon [3]: 12900 M⁻¹ s⁻¹
B20	–	30.9	–	Kd [3]: 183 nM; koff [3]: 0.047 s⁻¹; kon [3]: 256000 M⁻¹ s⁻¹
B21	–	335	–	Kd [3]: 10.8 nM; koff [3]: 0.0167 s⁻¹; kon [3]: 1.55e+06 M⁻¹ s⁻¹
B22	–	2.9	no binding	–

Source: patent US20230265198A1 (TWIST BIOSCIENCE, published 2023)
